Results taken from patent publication US20200283482A1, “BICYCLIC PEPTIDE LIGAND PRR-A CONJUGATES AND USES THEREOF” (BicycleRD Limited, priority 2017, published 2020).
Starred links: 1 amine or outer side, 2 acyl side, 3 side chain; linkers in the order of their positions; H or OH if unused. Positions of bridges follow the written chain, without caps; N, C: chain ends. Non-standard residues stand in square brackets, D forms with d. Residues, ends and D or L forms follow the SMILES beside them. *: point of attachment. X14 = CCCOc1nc(NC(=O)CCCNC(=O)OCc2ccc(NC(=O)[C@H](CCCNC(N)=O)NC(=O)[C@@H](NC(=O)Cn3cc(CCC(=O)*)nn3)C(C)C)cc2)c2[nH]c(=O)n(Cc3ccc(OCCN(C)C)nc3)c2n1; X16 = CCCOc1nc(NC(=O)CCCSSC(C)CCC(=O)*)c2[nH]c(=O)n(Cc3ccc(OCCN(C)C)nc3)c2n1; X15 = CCOCc1nc2c(NC(=O)CCCSSC(C)CCC(=O)*)nc3ccccc3c2n1CC(C)(C)O; 1Nal = N[C@@H](Cc1cccc2ccccc12)C(=O)O; TBMB = c1c(C[*:1])cc(C[*:3])cc1C[*:2]; Tle = CC(C)(C)[C@H](N)C(=O)O; βAla = NCCC(=O)O; Sar = CNCC(=O)O

Experiments:
Format in all cases: in vitro ADME
[1] = Plasma stability, human; details: human, plasma, pH 7.4
Procedure: (§1) The pooled frozen mouse, rat, dog, monkey or human plasma is thawed in a water bath at 37° C. prior to experiment. Plasma is centrifuged at 4000 rpm for 5 min and the clots are removed if any. […] For positive controls, 100 μM intermediate solution is prepared by diluting 20 μL of the stock solution with 180 μL 45% MeOH/H2O. […] For compounds I-7 to […]-17, […]-22, and […]-33, at each time point (0, 1, 2, 4, 6 and 24 hr), reactions were stopped by removing the plates from water bath and 200 μL 20 mM NH4OAC mix well first and then adding 800 μL of ice-cold stop solution (200 ng/mL Labetalol, 200 ng/mL Tolbutamide, 500 ng/mL N6-Ben and 40 mM DBAA in 100% Methanol). […] Sample plates were vortexed immediately on a plate shaker at 800 rpm for 10 min and then centrifuged at 4,000 rpm for 10 min. An aliquot of supernatant (200 μL) is transferred from each well before submitting to LC-MS/MS analysis. The percentage of test compound remaining at the individual time points relative to the 0 hour sample is calculated using following equation: Percent Remaining=100×(PAR at appointed incubation time/PAR at T0 time) where PAR is the peak area ratio of analyte versus internal standard (IS).

[2] = Plasma stability, cyno; details: cynomolgus monkey, plasma, pH 7.4
Procedure: as §1

[3] = Plasma stability, rat; details: rat, plasma, pH 7.4
Procedure: as §1

[4] = Plasma stability, mouse; details: mouse, plasma, pH 7.4
Procedure: as §1

CCCOc1nc(NC(=O)CCCSSC(C)CCC(=O)NCCC(=O)N(C)CC(=O)N(C)CC(=O)N(C)CC(=O)N(C)CC(=O)N(C)CC(=O)N(C)CC(=O)N(C)CC(=O)N(C)CC(=O)N(C)CC(=O)N(C)CC(=O)N[C@@H](C)C(=O)N[C@H]2CSCc3cc4cc(c3)CSC[C@H](NC(=O)[C@@H](C)NC(=O)[C@H](Cc3cccc5ccccc35)NC(=O)[C@H](CCC(=O)O)NC(=O)[C@H](CC(N)=O)NC(=O)[C@@H](C)NC2=O)C(=O)N[C@@H](CCC(=O)O)C(=O)N[C@@H](CC(=O)O)C(=O)N[C@@H](Cc2ccccc2)C(=O)N[C@@H](Cc2ccc(O)cc2)C(=O)N[C@@H](CC(=O)O)C(=O)N[C@@H](C(C)(C)C)C(=O)N[C@H](C(N)=O)CSC4)c2[nH]c(=O)n(Cc3ccc(OCCN(C)C)nc3)c2n1 (stereo partly drawn) [I-23] ({X16-βAla}-[Sar][Sar][Sar][Sar][Sar][Sar][Sar][Sar][Sar][Sar]AC[dA]NE[1Nal][dA]CEDFYD[Tle]C-NH2; linker 12-18-25 via TBMB)
half-life at 2 μM [1]: < 2 h | half-life at 2 μM [2]: < 2 h | half-life at 2 μM [3]: < 2 h | half-life at 2 μM [4]: < 2 h

CCCOc1nc(NC(=O)CCCNC(=O)OCc2ccc(NC(=O)[C@H](CCCNC(N)=O)NC(=O)[C@@H](NC(=O)Cn3cc(CCC(=O)NCCC(=O)N(C)CC(=O)N(C)CC(=O)N(C)CC(=O)N(C)CC(=O)N(C)CC(=O)N(C)CC(=O)N(C)CC(=O)N(C)CC(=O)N(C)CC(=O)N(C)CC(=O)N[C@@H](C)C(=O)N[C@H]4CSCc5cc6cc(c5)CSC[C@H](NC(=O)[C@@H](C)NC(=O)[C@H](Cc5cccc7ccccc57)NC(=O)[C@H](CCC(=O)O)NC(=O)[C@H](CC(N)=O)NC(=O)[C@@H](C)NC4=O)C(=O)N[C@@H](CCC(=O)O)C(=O)N[C@@H](CC(=O)O)C(=O)N[C@@H](Cc4ccccc4)C(=O)N[C@@H](Cc4ccc(O)cc4)C(=O)N[C@@H](CC(=O)O)C(=O)N[C@@H](C(C)(C)C)C(=O)N[C@H](C(N)=O)CSC6)nn3)C(C)C)cc2)c2[nH]c(=O)n(Cc3ccc(OCCN(C)C)nc3)c2n1 [I-26] ({X14-βAla}-[Sar][Sar][Sar][Sar][Sar][Sar][Sar][Sar][Sar][Sar]AC[dA]NE[1Nal][dA]CEDFYD[Tle]C-NH2; linker 12-18-25 via TBMB)
half-life at 2 μM [1]: < 2 h | half-life at 2 μM [2]: < 2 h | half-life at 2 μM [3]: < 2 h | half-life at 2 μM [4]: < 2 h

CCOCc1nc2c(NC(=O)CCCSSC(C)CCC(=O)NCCC(=O)N(C)CC(=O)N(C)CC(=O)N(C)CC(=O)N(C)CC(=O)N(C)CC(=O)N(C)CC(=O)N(C)CC(=O)N(C)CC(=O)N(C)CC(=O)N(C)CC(=O)N[C@@H](C)C(=O)N[C@H]3CSCc4cc5cc(c4)CSC[C@H](NC(=O)[C@@H](C)NC(=O)[C@H](Cc4cccc6ccccc46)NC(=O)[C@H](CCC(=O)O)NC(=O)[C@H](CC(N)=O)NC(=O)[C@@H](C)NC3=O)C(=O)N[C@@H](CCC(=O)O)C(=O)N[C@@H](CC(=O)O)C(=O)N[C@@H](Cc3ccccc3)C(=O)N[C@@H](Cc3ccc(O)cc3)C(=O)N[C@@H](CC(=O)O)C(=O)N[C@@H](C(C)(C)C)C(=O)N[C@H](C(N)=O)CSC5)nc3ccccc3c2n1CC(C)(C)O (stereo partly drawn) [I-28] ({X15-βAla}-[Sar][Sar][Sar][Sar][Sar][Sar][Sar][Sar][Sar][Sar]AC[dA]NE[1Nal][dA]CEDFYD[Tle]C-NH2; linker 12-18-25 via TBMB)
half-life at 2 μM [1]: < 2 h | half-life at 2 μM [2]: 2 to 6 h | half-life at 2 μM [3]: < 2 h | half-life at 2 μM [4]: < 2 h
